Results on two substances are retold here after patent US20220306715A1.

Assay [1] concerns the target interleukin-6 (IL-6) receptor. The assay is described as follows: cell-based or functional assay.
A further assay deals with anti-IL-6ST antibody. Briefly: sandwich ELISA on the MSD platform; capture: plate-bound anti-IL-6ST antibody; detection: anti-IL-12A antibody. (In an ELISA, binding on a coated surface is turned into a signal by an enzyme label.)

For orientation: EC50 (read off the curve) means the concentration needed to bring the measured effect to its halfway point. Low values mean an effect from little substance, high ones a need for much substance.

The substance tocilizumab (antibody) gave an EC50 of induction of apoptosis in IL-6 dependent DS-1 cells cultured 24 hours with IL-6 (caspase 3/7 luciferase assay) in assay [1] of 317 nM.

As for “mIL-6R-Fc-IL-35 chimeric protein (from UniProt Q00560 23-617; P43431 23-215; P22272 20-364; O35228 19-228) (Fc fusion)”, the EC50 (read off the curve) with anti-IL-6ST antibody came to 0.7 µg/mL.
